Reference: publication PMC9943895

Target: proteasomal core particle (WT) (yeast (endogenous)) (UniProt P21243)
Assay: stimulation of CP peptidase activity (suc-LLVY-AMC) by titrated base; base titrated against 2 nM CP, preincubated 15 min at 30 °C; 5 μM suc-LLVY-AMC; initial rates fitted to a hyperbola (Michaelis–Menten); surrogate readout for base–CP interaction

Kd [nM] | Substance
36 | base subcomplex purified from nas6Δ cells (WT Rpt3), P38764 1-993; P32565 1-945; O13563 1-156; P33299 1-467; P40327 1-437; P33298 1-428; P53549 1-437; P33297 1-434; Q01939 1-405
145 | base subcomplex purified from nas6Δ rpt3-Δ3 cells, P38764 1-993; P32565 1-945; O13563 1-156; P33299 1-467; P40327 1-437; P33298 1-428; P53549 1-437; P33297 1-434; Q01939 1-405
